B1: P2RY14 (parent)
chain: KLLSVIVWMLMLLLAVPNIILTNQ
B2: ANKRD40 (parent)
chain: YQELLRVCCCELGVNPDQVEKIRK

Variants of: B1
Assay: protein stability index of a GFP-peptide fusion (GPS, HEK-293T) (PSI 1-6); higher = more stable
Conditions: c terminus: a fixed tail appended
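Also: lentivirally expressed fusions sorted by FACS into six bins by GFP to DsRed ratio, PSI derived from sequencing read proportions per bin multiplied by bin number.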

Protein stability index: each site, then its substitutions
W8: G 2.81; Q 1.99; R 2.67; N 2.41; I 3.03; E 3.97; F 2.3; P 1.85; V 2.86; H 2.85; T 3.35; Y 2.21; L 1.76; M 3.83; K 3.73; C 1.95
L3: N 4.61; W 3.69; Y 2.55; T 2.93; K 3.61; S 2.35; F 3.42; M 1.64; I 1.73; H 1.3; A 2.27; E 2.78
V7: D 3.57; W 4.44; Y 3.99; E 2.65; T 3.76; S 2.28; F 2.12; R 2.31; A 2.07; M 3.08; P 2.8; Q 2.74; H 2.11; K 4.05
M9: A 3.79; W 2.15; E 2.68; N 2.1; S 3.82; D 4.27; L 3.19; G 2.87; K 3.05; Q 3.1
L14: H 2.92; G 2.27; I 2.49; D 3.07; W 2.51; V 1.32; N 2.75; C 2.41; E 3.48; K 2.95; S 3.42; P 4.16; T 3.16; M 3.33; A 2.24
L12: D 2.65; C 3.75; M 3.06; P 3.18; Q 2.51; H 2.22; R 2.69; F 2.59; N 2.32; G 3.74; A 2.7
I20: L 2.52; A 2.31; D 3.27; C 1.86; F 2.73; E 3.69; V 2.79; Y 3.09; S 3.35; K 3.1; P 4.08; N 2.31
K1: W 1.35; P 2.13; I 2.53; Y 3.13; D 1.48; G 2.55; Q 4.07; L 3.3; R 2.35; H 4.35; F 3.58
L13: G 2.79; F 3.72; H 4.28; P 3.47; T 2.38; N 3.02; D 3.11; S 3.29; Y 3.48; A 2.98; K 1.78; R 2.15; V 1.84; I 1.81
I6: D 2.02; S 2.39; G 2.2; F 2.8; W 2.02; R 2.43; N 3.01; L 4.14; T 2.48; M 3.13; V 4.09; A 2.45; P 1.89
L10: I 3.19; Q 3.16; P 2.86; T 3.58; M 3.84; V 2.99; E 4.43; Y 3.48; C 1.39; F 3.32; H 3.63; G 2.08; D 2.5; W 2.31; S 4.89; N 1.95
V16: I 3.43; L 3.59; S 2.89; G 2.36; A 2.77; F 4.27; M 3.43; T 2.01; H 2.06; D 2.52; P 2.75; C 3.32; N 3.98; E 2.6; Q 3.43
L2: C 3.88; N 1.89; F 2.29; D 2.67; G 2.21; I 3.46; P 3.19; K 2.76
L21: G 3.21; D 2.99; E 2.6; H 2.2; C 3.7; F 2.73; A 3.89
I19: D 2.8; R 2.2; Q 1.89; F 2.98; N 3.66; Y 3.02; M 1.29; A 3.24; S 2.07; P 3.43; T 3.06; K 1.76
M11: H 3; V 3.42; P 3.16; Q 1.1; R 2.58; W 2.89; E 2.06; F 3.31; S 2.01; A 2.06; K 2.5; Y 2.38; D 4.89; N 2.42; I 3.17
P17: T 2.4; L 2.97; H 2.96; E 3; Q 2.82; A 2.56; I 1.95; G 3.39; M 1.52; C 2.41; R 2.8; D 2.68; Y 1.54; S 3.12; W 1.98; F 2.69; N 2.08; V 1.23; K 3.35
A15: E 2.84; M 3.03; N 3.1; V 2.77; C 3.31; W 2.2; K 3.74; L 2.56; H 3.28; Q 3.12; D 3.06; P 2.35
N18: H 3.81; K 2.59; G 3.62; L 1.65; W 1.92; C 2.1; Y 2.09; A 1.99; R 1.49; P 2.78; T 2.89; F 2.16; V 1.58; E 2.5; I 2.63
V5: D 3.22; R 2.79; H 3.85; P 2.54; Y 2.63; I 3.93; A 3.26; K 2.52; F 2.09; L 2.11; S 3.98; N 2.29; M 1.71; T 3.51; Q 2.35; W 2.74; E 2.42; G 4.02
S4: W 4.74; N 2.81; P 3.34; G 2.85; R 2.78; T 2.53; I 2.44; V 3.9; Q 2.56; H 3.18; K 5.66; Y 2.82; F 2.98

Variants of: B2
Assay: as above
Conditions: c terminus: a fixed tail appended

Protein stability index of substitutions, site by site:
K21: W 2.33; Y 2.15
K24: M 1.66; L 2.07; D 2.13; N 1.61; W 1.27; T 2; H 1.59; A 1.36; V 1.61; R 1.6; I 1.6; Q 2.12; F 3.37; P 1.35; C 1; G 2.46; E 1.62; S 1.66
I22: G 2; F 2.44; E 2.14; A 2.02; D 2.25; N 3.16; V 1.41; M 1.63; Q 2.99; L 1.93; S 2.06; Y 2.57; R 1.88; W 1.54; K 2.43; H 2.69; C 2.13; P 1.18
R23: V 2.9; A 1.91; L 1.98; D 2.04; F 1.55; T 2.08; N 1.93; M 2.02; I 1.8; S 1.72; E 1.6; W 1.72; G 1.56; Q 1.4; K 1.25; P 1.57; H 1.84; Y 1.8
